According to patent US20250250357A1 (NANJING ZAIMING PHARMACEUTICAL, published 2025):
Substitutions are numbered along the chain they refer to.

T1: human MSLN-R1-his protein (human, UniProt Q13421 296-390)
T1 construct: Region 1 of human mesothelin, made in HEK293E cells, His-tagged; also called human MSLN-R1 protein; hMSLN-R1-his; not shown: His tag
T1 chain: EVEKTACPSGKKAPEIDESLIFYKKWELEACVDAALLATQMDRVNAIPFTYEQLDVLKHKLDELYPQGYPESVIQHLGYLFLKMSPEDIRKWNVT

B1: S009-F8-27.1 (antibody, human IgG1, kappa, V domains shown)
VH: EVQLVESGGGLVKPGGSLKLSCAASGFTFSSYAMSWVRQTPEKRLEWVATISDGGNYTYYPDNVKGRFTISRDNAKNNLYLQMSHLKSEDTAMYYCAGDRGYPYAMDSWGQGTSVTVSS
VL: NIMMTQSPSSLAVSAGEKVTMSCKSSQSVLYSSNQKNYLAWYQQKPGQSPKLLIYWASTRESGVPDRFTGSGSGTDFTLTISNVHAEDLAVYYCHQYLSSLTFGAGTKLELKR
B2: S009-F8-28.23 (antibody, human IgG1, kappa, V domains shown)
VH: B1 VH with G10D, N56S, K65E, P103S, M106L, S108Y
VL: B1 VL with N83S, H85Q
B3: S009-F8-33.12 (antibody, human IgG1, kappa, V domains shown)
VH: EVQLQQSGAELVKPGASVKLSCTASAFNIKDYYMHWVKQRTEQGLEWIGRIDPEDGETKYAPKFQGKATITADTSSNTAYLQLSSLTSEDTAVYYCASGSGTGAMDYWGQGTSVTVSS
VL: DIVMTQSQKFMSTSVGDRVSITCKASQNVRTAVGWYQQKPGQSPKALIYLASNRHTGVPDRFTGSGSGTDFTLTISNVQSEDLADYFCLQHWNSPYTFGGGTKLVIKR
B4: S009-F8-29.1 (antibody, human IgG1, kappa, V domains shown)
VH: QVQLQQSGAELARPGASVKMSCKASGYTFISYTMHWVKQRPGQGLEWIGYINPSSGYTKYNQKFKDKATLTADKSSSTAYMQLNSLTSEDSAVYYCARYYSNPDYYAMDYWGQGTSVTVSS
VL: QIVLTQSPAIMSASPGEKVTITCSASSSVSYMHWFQQKPGTSPKLWIYSTSNLASGVPARFSGSGSGTSYSLTISRMEAEDAATYYCQQRSSYPLTFGGGTKLELKR
B5: S009-F8-31.22 (antibody, human IgG1, kappa, V domains shown)
VH: EVQLVESGGDLVKPGGSLKLSCAASGFTFSTYGMSWVRQTPDKRLEWVATISSGGSYTYYPDSLKGRFTISRDNAKNTLYLQMSSLKSEDTAMYYCARHEGYYYGKDYWGQGTTLTVSS
VL: DIVLTQSPATLSVTPGDSVSLSCRASHSISNNLHWYQQKSHESPRLLIKYASQSISGIPSKFSGSGSGTDFTLSINSVETEDFGMYFCQQTNSWPLTFGAGTKLELKR
B6: S009-F8-32.3 (antibody, human IgG1, kappa, V domains shown)
VH: QVQLKESGPGLVAPSQSLSITCTVSGFSLSSYAISWVRQPPGKGLEWLGVIWTGGGTNYNSALKSRLSISKDNSKSQVFLKMNSLQTDDTARFYCARNNYGRLDYAMDYWGQGTSVTVSS
VL: DVVMTQTPLSLPVSLGDQASISCRSSQSLVHGNGNTYLHWYLQKPGQSPKLLIYKVSNRFSGVPDRFSGSGSGTDFTLKISRVETEDLGVYFCSQSTHVPFTFGSGTKLEIKR

Target: T1, human MSLN-R1-his protein
Test: ELISA on coated MSLN-R1; antibody 1 nM
Protocol: (§1) The plate was sealed with a plastic film and incubated at 4° C. overnight. The next day, the plate was washed twice with PBST, and a blocking buffer [PBS+2% (w/w) BSA] was added for blocking at room temperature for 2 h. The blocking buffer was discarded, and a chimeric antibody or negative control antibody serially diluted from 100 nM was added at 50 μL/well. After incubation at 37° C. for 2 h, the plate was washed 3 times with PBST. […] After incubation at 37° C. for 2 h, the plate was washed 5 times with PBST. A TMB substrate was added at 50 μL/well for incubation at room temperature for 5-10 min, and then a stop solution (1.0 N HCl) was added at 50 μL/well.

Row | OD450 | Binder
1 | 0.05 OD450 | B1
2 | 0.04 OD450 | B2
3 | 2.45 OD450 | B3
4 | 0.04 OD450 | B4
5 | 2.05 OD450 | B5
6 | 2.6 OD450 | B6

target: T2, human MSLN-R2-his protein (human, UniProt Q13421 391-486); test: ELISA on coated MSLN-R2; antibody 1 nM
T2 construct: Region 2 of human mesothelin, made in HEK293E cells, His-tagged; also called human MSLN-R2 protein; hMSLN-R2-his; not shown: His tag
T2 sequence (Q13421 other isoform, or with tags, fused parts or gaps): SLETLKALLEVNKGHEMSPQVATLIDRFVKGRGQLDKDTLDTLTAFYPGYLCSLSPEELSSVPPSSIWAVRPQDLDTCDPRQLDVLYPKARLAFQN

Row | OD450 | Binder
7 | 0.05 OD450 | B1
8 | 0.04 OD450 | B2
9 | 0.04 OD450 | B3
10 | 0.04 OD450 | B4
11 | 0.04 OD450 | B5
12 | 0.04 OD450 | B6

target: T3, human MSLN-R3-his protein (human, UniProt Q13421 487-598); test: ELISA on coated MSLN-R3; antibody 1 nM
T3 construct: Region 3 of human mesothelin, made in HEK293E cells, His-tagged; also called human MSLN-R3 protein; hMSLN-R3-his; not shown: His tag
T3 sequence (Q13421 495-606): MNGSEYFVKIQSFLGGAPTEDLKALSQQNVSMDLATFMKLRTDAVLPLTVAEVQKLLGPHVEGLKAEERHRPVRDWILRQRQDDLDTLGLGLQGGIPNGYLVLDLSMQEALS

Row | OD450 | Binder
13 | 0.04 OD450 | B1
14 | 0.04 OD450 | B2
15 | 0.04 OD450 | B3
16 | 0.06 OD450 | B4
17 | 0.05 OD450 | B5
18 | 0.04 OD450 | B6

Target: T1, human MSLN-R1-his protein
Test: ELISA on coated MSLN-R1; antibody 10 nM
Protocol: as §1

Row | OD450 | Binder
19 | 0.08 OD450 | B1
20 | 0.04 OD450 | B2
21 | 2.66 OD450 | B3
22 | 0.04 OD450 | B4
23 | 2.17 OD450 | B5
24 | 2.79 OD450 | B6

target: T2, human MSLN-R2-his protein; test: ELISA on coated MSLN-R2; antibody 10 nM
Protocol: as §1

Row | OD450 | Binder
25 | 0.05 OD450 | B1
26 | 0.04 OD450 | B2
27 | 0.04 OD450 | B3
28 | 0.04 OD450 | B4
29 | 0.05 OD450 | B5
30 | 0.05 OD450 | B6

target: T3, human MSLN-R3-his protein; test: ELISA on coated MSLN-R3; antibody 10 nM

Row | OD450 | Binder
31 | 0.05 OD450 | B1
32 | 0.05 OD450 | B2
33 | 0.05 OD450 | B3
34 | 0.06 OD450 | B4
35 | 0.07 OD450 | B5
36 | 0.04 OD450 | B6

Target: T1, human MSLN-R1-his protein
Test: ELISA on coated MSLN-R1; antibody 0.1 nM
Protocol: as §1

Row | OD450 | Binder
37 | 0.05 OD450 | B1
38 | 0.04 OD450 | B2
39 | 1.6 OD450 | B3
40 | 0.04 OD450 | B4
41 | 1.95 OD450 | B5
42 | 1.64 OD450 | B6

Target: T1, human MSLN-R1-his protein
Test: ELISA on coated MSLN-R1; antibody 100 nM

Row | OD450 | Binder
43 | 0.35 OD450 | B1
44 | 0.05 OD450 | B2
45 | 2.64 OD450 | B3
46 | 0.05 OD450 | B4
47 | 2.12 OD450 | B5
48 | 2.81 OD450 | B6

target: T2, human MSLN-R2-his protein; test: ELISA on coated MSLN-R2; antibody 0.1 nM

Row | OD450 | Binder
49 | 0.04 OD450 | B1
50 | 0.04 OD450 | B2
51 | 0.04 OD450 | B3
52 | 0.04 OD450 | B4
53 | 0.05 OD450 | B5
54 | 0.04 OD450 | B6

target: T2, human MSLN-R2-his protein; test: ELISA on coated MSLN-R2; antibody 100 nM
Protocol: as §1

Row | OD450 | Binder
55 | 0.05 OD450 | B1
56 | 0.05 OD450 | B2
57 | 0.05 OD450 | B3
58 | 0.06 OD450 | B4
59 | 0.08 OD450 | B5
60 | 0.07 OD450 | B6

target: T3, human MSLN-R3-his protein; test: ELISA on coated MSLN-R3; antibody 0.1 nM
Protocol: as §1

Row | OD450 | Binder
61 | 0.07 OD450 | B1
62 | 0.04 OD450 | B2
63 | 0.03 OD450 | B3
64 | 0.04 OD450 | B4
65 | 0.04 OD450 | B5
66 | 0.04 OD450 | B6

target: T3, human MSLN-R3-his protein; test: ELISA on coated MSLN-R3; antibody 100 nM
Protocol: as §1

Row | OD450 | Binder
67 | 0.06 OD450 | B1
68 | 0.07 OD450 | B2
69 | 0.06 OD450 | B3
70 | 0.1 OD450 | B4
71 | 0.13 OD450 | B5
72 | 0.07 OD450 | B6

Target: T1, human MSLN-R1-his protein
Test: ELISA on coated MSLN-R1; antibody 0.01 nM

Row | OD450 | Binder
73 | 0.04 OD450 | B1
74 | 0.04 OD450 | B2
75 | 0.43 OD450 | B3
76 | 0.04 OD450 | B4
77 | 0.8 OD450 | B5
78 | 0.42 OD450 | B6

target: T2, human MSLN-R2-his protein; test: ELISA on coated MSLN-R2; antibody 0.01 nM
Protocol: as §1

Row | OD450 | Binder
79 | 0.04 OD450 | B1
80 | 0.04 OD450 | B2
81 | 0.04 OD450 | B3
82 | 0.04 OD450 | B4
83 | 0.04 OD450 | B5
84 | 0.04 OD450 | B6

target: T3, human MSLN-R3-his protein; test: ELISA on coated MSLN-R3; antibody 0.01 nM
Protocol: as §1

Row | OD450 | Binder
85 | 0.04 OD450 | B1
86 | 0.07 OD450 | B2
87 | 0.04 OD450 | B3
88 | 0.04 OD450 | B4
89 | 0.04 OD450 | B5
90 | 0.04 OD450 | B6

Target: T1, human MSLN-R1-his protein
Test: ELISA on coated MSLN-R1; antibody 0.001 nM

Row | OD450 | Binder
91 | 0.04 OD450 | B1
92 | 0.05 OD450 | B2
93 | 0.11 OD450 | B3
94 | 0.04 OD450 | B4
95 | 0.19 OD450 | B5
96 | 0.11 OD450 | B6

target: T2, human MSLN-R2-his protein; test: ELISA on coated MSLN-R2; antibody 0.001 nM

Row | OD450 | Binder
97 | 0.05 OD450 | B1
98 | 0.04 OD450 | B2
99 | 0.04 OD450 | B3
100 | 0.04 OD450 | B4
101 | 0.04 OD450 | B5
102 | 0.04 OD450 | B6

target: T3, human MSLN-R3-his protein; test: ELISA on coated MSLN-R3; antibody 0.001 nM
Protocol: as §1

Row | OD450 | Binder
103 | 0.05 OD450 | B1
104 | 0.04 OD450 | B2
105 | 0.04 OD450 | B3
106 | 0.15 OD450 | B4
107 | 0.04 OD450 | B5
108 | 0.04 OD450 | B6

Target: T1, human MSLN-R1-his protein
Test: ELISA on coated MSLN-R1; antibody 0.0001 nM

Row | OD450 | Binder
109 | 0.04 OD450 | B1
110 | 0.04 OD450 | B2
111 | 0.05 OD450 | B3
112 | 0.04 OD450 | B4
113 | 0.08 OD450 | B5
114 | 0.06 OD450 | B6

target: T2, human MSLN-R2-his protein; test: ELISA on coated MSLN-R2; antibody 0.0001 nM

Row | OD450 | Binder
115 | 0.04 OD450 | B1
116 | 0.04 OD450 | B2
117 | 0.04 OD450 | B3
118 | 0.05 OD450 | B4
119 | 0.05 OD450 | B5
120 | 0.04 OD450 | B6

target: T3, human MSLN-R3-his protein; test: ELISA on coated MSLN-R3; antibody 0.0001 nM
Protocol: as §1

Row | OD450 | Binder
121 | 0.04 OD450 | B1
122 | 0.04 OD450 | B2
123 | 0.04 OD450 | B3
124 | 0.06 OD450 | B4
125 | 0.04 OD450 | B5
126 | 0.04 OD450 | B6

Target: T1, human MSLN-R1-his protein
Test: ELISA on coated MSLN-R1; no antibody (blank)

Row | OD450 | Binder
127 | 0.05 OD450 | B1
128 | 0.04 OD450 | B2
129 | 0.04 OD450 | B3
130 | 0.04 OD450 | B4
131 | 0.05 OD450 | B5
132 | 0.04 OD450 | B6

target: T2, human MSLN-R2-his protein; test: ELISA on coated MSLN-R2; no antibody (blank)

Row | OD450 | Binder
133 | 0.05 OD450 | B1
134 | 0.04 OD450 | B2
135 | 0.04 OD450 | B3
136 | 0.04 OD450 | B4
137 | 0.05 OD450 | B5
138 | 0.04 OD450 | B6

target: T3, human MSLN-R3-his protein; test: ELISA on coated MSLN-R3; no antibody (blank)

Row | OD450 | Binder
139 | 0.05 OD450 | B1
140 | 0.04 OD450 | B2
141 | 0.03 OD450 | B3
142 | 0.04 OD450 | B4
143 | 0.05 OD450 | B5
144 | 0.04 OD450 | B6
